Experiments:
Assay in all cases: cell-based or functional assay
[1] = biological target: HIV-1 Env of pseudovirus 0815.v3.c3 (HIV-1)
[2] = biological target: HIV-1 Env of pseudovirus RHPA4259.7 (HIV-1)
[3] = biological target: HIV-1 Env of pseudovirus 191955_A11 (HIV-1)
[4] = biological target: HIV-1 Env of pseudovirus AC10.0.29 (HIV-1)
[5] = biological target: HIV-1 Env of pseudovirus 231966.c02 (HIV-1)
[6] = biological target: HIV-1 Env of pseudovirus CNE53 (HIV-1)
[7] = biological target: HIV-1 Env of pseudovirus CNE20 (HIV-1)
[8] = biological target: HIV-1 Env of pseudovirus ZM247v1(Rev-) (HIV-1)
[9] = biological target: HIV-1 Env of pseudovirus 263-8 (HIV-1)
[10] = biological target: HIV-1 Env of pseudovirus 6240_08_TA5_4622 (HIV-1)
[11] = biological target: HIV-1 Env of pseudovirus C4118.c09 (HIV-1)
[12] = biological target: HIV-1 Env of pseudovirus CAAN5342.A2 (HIV-1)
[13] = biological target: HIV-1 Env of pseudovirus Q259.d2.17 (HIV-1)
[14] = biological target: HIV-1 Env of pseudovirus 1054_07_TC4_1499 (HIV-1)
[15] = biological target: HIV-1 Env of pseudovirus CAP45.2.00.G3 (HIV-1)
[16] = biological target: HIV-1 Env of pseudovirus Ce1172_H1 (HIV-1)
[17] = biological target: HIV-1 Env of pseudovirus T250-4 (HIV-1)
[18] = biological target: HIV-1 Env of pseudovirus P0402_c2_11 (HIV-1)
[19] = biological target: HIV-1 Env of pseudovirus ZM233M.PB6 (HIV-1)
[20] = biological target: HIV-1 Env of pseudovirus BJOX009000.02.4 (HIV-1)
[21] = biological target: HIV-1 Env of pseudovirus CNE52 (HIV-1)
[22] = biological target: HIV-1 Env of pseudovirus Du156.12 (HIV-1)
[23] = biological target: HIV-1 Env of pseudovirus T278-50 (HIV-1)
[24] = biological target: HIV-1 Env of pseudovirus 928-28 (HIV-1)
[25] = biological target: HIV-1 Env of pseudovirus X2088_c9 (HIV-1)
[26] = biological target: HIV-1 Env of pseudovirus HIV-0013095-2.11 (HIV-1)
[27] = biological target: HIV-1 Env of pseudovirus 246F C1G (HIV-1)
[28] = biological target: HIV-1 Env of pseudovirus MS208.A1 (HIV-1)
[29] = biological target: HIV-1 Env of pseudovirus PVO.4 (HIV-1)
[30] = biological target: HIV-1 Env of pseudovirus 235-47 (HIV-1)
[31] = biological target: HIV-1 Env of pseudovirus ZM135M.PL10a (HIV-1)
[32] = biological target: HIV-1 Env of pseudovirus Ce704809221_1B3 (HIV-1)
[33] = biological target: HIV-1 Env of pseudovirus 6535.3 (HIV-1)
[34] = biological target: HIV-1 Env of pseudovirus Ce703010054_2A2 (HIV-1)
[35] = biological target: HIV-1 Env of pseudovirus X1254_c3 (HIV-1)
[36] = biological target: HIV-1 Env of pseudovirus WEAU_d15_410_787 (HIV-1)
[37] = biological target: HIV-1 Env of pseudovirus Q461.e2 (HIV-1)

Q: 3BNC117 (antibody) was tested. Which IC50, titer in TZM.bl cells [1] did it give?
A: 0.01 µg/mL

Q: And the IC80, titer in TZM.bl cells [1]?
A: 0.02 µg/mL

Q: What about the neutralization IC50 [2] of the same substance?
A: < 0.09 µg/mL

Q: And the neutralization IC80 [2]?
A: < 0.09 µg/mL

Q: What about the neutralization IC50 [3] of the same substance?
A: > 50 µg/mL

Q: And the neutralization IC80 [3]?
A: > 50 µg/mL

Q: What about the neutralization IC50 [4] of the same substance?
A: 13.8 µg/mL

Q: And the neutralization IC80 [4]?
A: > 50 µg/mL

Q: What about the IC50, titer in TZM.bl cells [5] of the same substance?
A: 0.29 µg/mL

Q: And the IC80, titer in TZM.bl cells [5]?
A: 2.37 µg/mL

Q: And the neutralization IC50 [6]?
A: 0.08 µg/mL

Q: What about the neutralization IC80 [6] of the same substance?
A: 0.99 µg/mL

Q: And the neutralization IC50 [7]?
A: > 50 µg/mL

Q: And the neutralization IC80 [7]?
A: > 50 µg/mL

Q: What about the neutralization IC50 [8] of the same substance?
A: > 50 µg/mL

Q: What about the neutralization IC80 [8] of the same substance?
A: > 50 µg/mL

Q: And the neutralization IC50 [9]?
A: 0.005 µg/mL

Q: What about the neutralization IC80 [9] of the same substance?
A: 0.04 µg/mL

Q: What about the neutralization IC50 [10] of the same substance?
A: 0.33 µg/mL

Q: What about the neutralization IC80 [10] of the same substance?
A: 1.17 µg/mL

Q: And the IC50, titer in TZM.bl cells [11]?
A: 0.09 µg/mL

Q: What about the IC80, titer in TZM.bl cells [11] of the same substance?
A: 0.52 µg/mL

Q: And the neutralization IC50 [12]?
A: 0.42 µg/mL

Q: And the neutralization IC80 [12]?
A: 1.51 µg/mL

Q: And the neutralization IC50 [13]?
A: 0.01 µg/mL

Q: What about the neutralization IC80 [13] of the same substance?
A: 0.05 µg/mL

Q: And the neutralization IC50 [14]?
A: 0.07 µg/mL

Q: And the neutralization IC80 [14]?
A: 0.49 µg/mL

Q: What about the neutralization IC50 [15] of the same substance?
A: 3.88 µg/mL

Q: What about the neutralization IC80 [15] of the same substance?
A: > 50 µg/mL

Q: What about the neutralization IC50 [16] of the same substance?
A: > 50 µg/mL

Q: And the neutralization IC80 [16]?
A: > 50 µg/mL

Q: What about the IC50, titer in TZM.bl cells [17] of the same substance?
A: > 15 µg/mL

Q: And the IC80, titer in TZM.bl cells [17]?
A: > 15 µg/mL

Q: And the IC50, titer in TZM.bl cells [18]?
A: 0.06 µg/mL

Q: And the IC80, titer in TZM.bl cells [18]?
A: 0.38 µg/mL

Q: What about the neutralization IC50 [19] of the same substance?
A: 0.13 µg/mL

Q: And the neutralization IC80 [19]?
A: 0.85 µg/mL

Q: And the IC50, titer in TZM.bl cells [20]?
A: 0.4 µg/mL

Q: What about the IC80, titer in TZM.bl cells [20] of the same substance?
A: 1.79 µg/mL

Q: And the neutralization IC50 [21]?
A: 0.02 µg/mL

Q: What about the neutralization IC80 [21] of the same substance?
A: 0.06 µg/mL

Q: What about the neutralization IC50 [22] of the same substance?
A: 0.02 µg/mL

Q: What about the neutralization IC80 [22] of the same substance?
A: 0.08 µg/mL

Q: And the IC50, titer in TZM.bl cells [23]?
A: > 15 µg/mL

Q: What about the IC80, titer in TZM.bl cells [23] of the same substance?
A: > 15 µg/mL

Q: And the neutralization IC50 [24]?
A: 0.15 µg/mL

Q: And the neutralization IC80 [24]?
A: 0.55 µg/mL

Q: What about the IC50, titer in TZM.bl cells [25] of the same substance?
A: > 50 µg/mL

Q: And the IC80, titer in TZM.bl cells [25]?
A: > 50 µg/mL

Q: And the neutralization IC50 [26]?
A: 0.33 µg/mL

Q: What about the neutralization IC80 [26] of the same substance?
A: 2.53 µg/mL

Q: What about the neutralization IC50 [27] of the same substance?
A: 19.3 µg/mL

Q: What about the neutralization IC80 [27] of the same substance?
A: > 50 µg/mL

Q: And the neutralization IC50 [28]?
A: 0.01 µg/mL

Q: What about the neutralization IC80 [28] of the same substance?
A: 0.09 µg/mL

Q: What about the neutralization IC50 [29] of the same substance?
A: < 0.09 µg/mL

Q: What about the neutralization IC80 [29] of the same substance?
A: 0.19 µg/mL

Q: What about the IC50, titer in TZM.bl cells [30] of the same substance?
A: 0.03 µg/mL

Q: What about the IC80, titer in TZM.bl cells [30] of the same substance?
A: 0.12 µg/mL

Q: And the neutralization IC50 [31]?
A: 0.03 µg/mL

Q: And the neutralization IC80 [31]?
A: 0.13 µg/mL

Q: What about the neutralization IC50 [32] of the same substance?
A: 0.08 µg/mL

Q: What about the neutralization IC80 [32] of the same substance?
A: 0.31 µg/mL

Q: What about the neutralization IC50 [33] of the same substance?
A: 0.55 µg/mL

Q: What about the neutralization IC80 [33] of the same substance?
A: 2.44 µg/mL

Q: And the neutralization IC50 [34]?
A: 0.37 µg/mL

Q: What about the neutralization IC80 [34] of the same substance?
A: 1.67 µg/mL

Q: What about the IC50, titer in TZM.bl cells [35] of the same substance?
A: 0.08 µg/mL

Q: And the IC80, titer in TZM.bl cells [35]?
A: 0.27 µg/mL

Q: And the neutralization IC50 [36]?
A: 0.05 µg/mL

Q: And the neutralization IC80 [36]?
A: 0.19 µg/mL

Q: And the neutralization IC50 [37]?
A: 0.03 µg/mL

Q: And the neutralization IC80 [37]?
A: 0.09 µg/mL
